These results are taken from US20240317840A1 (Novartis, published 2024).

By IC50 is commonly meant the concentration that gives 50% inhibition. The Kd is the concentration at which binding is half-saturated. For orientation: EC50 (read off the curve) means the concentration giving half of the maximal effect. Low values mean higher potency in that assay, high ones lower potency in that assay.

Assay [1] has as its target HBsAg of HBV genotype D, serotype ayw (Hepatitis B virus). Put plainly: cell-based or functional assay.
For assay [2], the target named is HBsAg of HBV genotype B (AF 121245) (Hepatitis B virus). Put plainly: sandwich ELISA, captured HBsAg from culture supernatant. For orientation: An ELISA detects its analyte on a solid surface through an enzyme-linked reagent.
Procedure: (§1) The binding of anti-HBsAg antibodies to the 4 major genotypes (A-D) of HBV were analyzed by sandwich ELISA.
Assay [3] concerns the target T1, HBsAg of HBV genotype A (AY934772) (Hepatitis B virus).
T1 construct: captured from supernatant by horse polyclonal anti-HBsAg
The description is as above.
Procedure: as §1

Assay [4] deals with HBsAg of HBV genotype C (DQ087960) (Hepatitis B virus). The assay is described as above.
Procedure: as §1
For assay [5], the target named is T2, HBsAg AY serotype (Hepatitis B virus).
T2 construct: also called HBsAg serotype AY
Put plainly: SPR Biacore T200, HBsAg particles immobilized, antibody as analyte, 1:1 fit.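 Also: Anti-HBsAg antibodies assessed for binding against both major HBsAg serotypes, AY and AD.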 A general note: SPR reads the build-up and loss of mass on a sensor chip optically.
Procedure: (§2) Binding affinity interaction (KD) of the anti-HBsAg antibodies with the two major serotypes of HBsAg, AY and AD, was determined utilizing surface plasma resonance (SPR) technology.

For assay [6], the target named is T3, HBsAg AD serotype (Hepatitis B virus).
T3 construct: also called HBsAg serotype AD
The assay is described as above.
Procedure: as §2

In assay [7] the target is HBsAg clinical mutation T126S (Hepatitis B virus). The assay is described as follows: sandwich ELISA, mutant HBsAg from cell supernatant captured on horse polyclonal anti-HBsAg, antibody titrated, absorbance 450 nm.
The target of assay [8] is HBsAg clinical mutation M133L (Hepatitis B virus). The assay is described as above.
Assay [9] concerns the target HBsAg clinical mutation T126S (Hepatitis B virus). The assay is described as follows: sandwich ELISA, captured mutant HBsAg from culture supernatant.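 Also: Anti-HBsAg antibodies tested for binding to mutant HBsAg secreted by stably transfected cell lines, supernatant incubated 1 h on antibody-coated plates.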
Procedure: (§3) The binding of anti-HBsAg antibodies to 4 well characterized vaccine and/or HBsAg clinical mutations of HBsAg (G145R, D144A, T126S, M133L) were analyzed by sandwich ELISA. […] Supernatant collected from HBsAg cell-culture derived clinical mutation stables (G145R, D144A, T126S, M133L) was allowed to bind antibody coated plates for 1 hour.
In assay [10] the target is HBsAg clinical mutation M133L (Hepatitis B virus). The assay is described as above.
Procedure: as §3
In assay [11] the target is HBsAg clinical mutation G145R (Hepatitis B virus). Described as above.
Procedure: as §3
Assay [12] has as its target HBsAg clinical mutation D144A (Hepatitis B virus). The description is as above.
Procedure: as §3
In assay [13] the target is HBsAg clinical mutation T126S (Hepatitis B virus). The assay is described as follows: sandwich ELISA, mutant HBsAg from cell supernatant captured on horse polyclonal anti-HBsAg, antibody titrated, absorbance 450 nm. This is another data set of the same source.
Assay [14] has as its target HBsAg clinical mutation M133L (Hepatitis B virus). Described as above. This is another data set of the same source.
Assay [15] concerns the target HBsAg clinical mutation T126S (Hepatitis B virus). Described as above. The source holds these as a separate data set.
In assay [16] the target is HBsAg clinical mutation D144A (Hepatitis B virus). Described as above.
The target of assay [17] is HBsAg clinical mutation T126S (Hepatitis B virus). The assay is described as above. The source holds these as a separate data set.
The target in assay [18] is HBsAg clinical mutation M133L (Hepatitis B virus). The assay is described as above. This is another data set of the same source.
Assay [19] addresses T2, HBsAg AY serotype. The assay is described as follows: SPR epitope binning; competitor (1st, saturating Ab): CR8087.
Procedure: (§4) Epitope binning of anti-HBsAg antibodies with the two major serotypes of HBsAg, AY and AD, was performed utilizing surface plasmon resonance (SPR) technology. […] Each pair of antibodies was tested for blocking one another's binding to their epitope on the antigen by subsequently applying one antibody as first (saturating) followed by the other as second (competing) antibody and vice versa. Saturating antibodies were applied at 500 nM for 120s. Competing antibodies utilized the same conditions but were supplemented with the first antibody at 500 nM to maintain saturation. Binding signals were corrected by subtracting the reference cell signal. Specific binding of the competing antibody in presence of the saturating antibody was calculated by subtracting a saturating antibody plus buffer reference signal. All signals were normalized to 100 RU of immobilized ligand. The specific binding signal obtained from the application as competing antibody was expressed as percentage of the binding signal obtained from the application of the same antibody as saturating (first) antibody, the signal of which was regarded 100% binding.
The target of assay [20] is T3, HBsAg AD serotype. Described as above.
Procedure: as §4
Assay [21] deals with HBsAg clinical mutation T126S (Hepatitis B virus). The assay is described as follows: sandwich ELISA, mutant HBsAg from cell supernatant captured on horse polyclonal anti-HBsAg, antibody titrated, absorbance 450 nm. This is another data set of the same source.
The target in assay [22] is HBsAg clinical mutation M133L (Hepatitis B virus). The description is as above. The source holds these as a separate data set.
In assay [23] the target is HBsAg clinical mutation G145R (Hepatitis B virus). The assay is described as above.
Assay [24] has as its target HBsAg clinical mutation D144A (Hepatitis B virus). The description is as above. This is another data set of the same source.
In assay [25] the target is T2, HBsAg AY serotype. The assay is described as follows: SPR epitope binning; competitor (1st, saturating Ab): HBC34.
Procedure: as §4
For assay [26], the target named is T3, HBsAg AD serotype. The description is as above.
Procedure: as §4

Read-outs that look alike come from different tables or passages of the source. Bounds are passed on as bounds.

B1: NOV3831 (antibody, human IgG1, lambda, V domains shown)
VH: EMQVLESGGGLVQPGGSLRLSCAASGFTFNNYAMSWVRQVPGKGLEWVSSISGSGGSTYYADSVKGQFTISRDNSKNTLYLQMNSLRAEDTAVYYCAKSSILSGGHARVYGIDVWGQGTTVTVSS
VL: QSALTQPPSVSVAPGQTARITCGGNNIGSQSVHWYQQKPGQAPILVVYDDTDRPSGIPARFSGSSSGSTATLTIGRVEAGDEADYYCQVWDSSSDHVVFGGGTKLTVLS
notes: Full human IgG1 (lambda) expressed in CHO cells
As to B1, the “Virus neutralization EC50” value in assay [1] came to 0.026 nM. The IC50 in [2] was 0.015 nM; in [3], 0.69 nM; in [4], 0.031 nM; in [9] it was 0.0093 nM; in assay [10], 0.0058 nM; in assay [11], more than 67 nM. The molecule further gave a half-inhibitory concentration (IC50) in [12] of 3.6 nM. The results for the Kd with HBsAg AY serotype [5] and in the assay with HBsAg AD serotype [6] were 0.59 nM and 0.67 nM, respectively. In addition, the “EC50 (read off the curve)” value in [7] and in assay [8] was approximately 0.02 nM each time.

B2: NOV2603 (antibody, human IgG1, kappa, V domains shown)
VH: QVQLVQSGAEVKKPGASVKVSCKASGYTFTSYYMHWVRQAPGQGLEWMGIISPSGGSTSYAQKFQGRVTMTRDTSTSTVYMELSSLRSEDTAVYYCARDWEGGDPYGYYYAFDYWGQGTLVTVSS
VL: not shown
notes: Full human IgG1 (kappa) expressed in CHO cells
On to B2, for which the “Virus neutralization EC50” value in [1] is 0.14 nM. Besides, the 50% inhibitory concentration (IC50) in assay [2] was found to be 1.5 nM; in [3], 2.3 nM; in assay [4], 3.6 nM; in [9] it was 0.06 nM; in assay [10], 0.072 nM; in assay [11], 0.33 nM. In assay [12], this molecule registered a concentration for half-maximal inhibition (IC50) of 1.34 nM. The Kd was determined as 3.1 nM in the assay with HBsAg AY serotype [5] and 15.5 nM with HBsAg AD serotype [6]. Besides, the “EC50 (read off the curve)” value in assay [13] is approximately 0.06 nM; in assay [14], approximately 0.07 nM.

B3: NOV3212 (antibody, human IgG1, kappa, V domains shown)
VH: QVQLVQSGAEVKKPGASVKVSCKASGYTFTSLEMHWVRQAPGQGLEWMGIIEPSGGSTSYAQKFQGRVTMTRDTSTSTVYMELSSLRSEDTAVYYCARDWEGGDPYGYYYAFDYWGQGTLVTVSS
VL: not shown
notes: as for B2
B3: the “Virus neutralization EC50” value in assay [1] was 0.11 nM. Moreover, the IC50 in assay [2] worked out at 0.045 nM; in [3], 0.23 nM; in [4] it was 0.068 nM; in assay [9], 0.012 nM; in assay [10], 0.012 nM; in assay [11], 0.033 nM. Further, the IC50 in assay [12] was 0.079 nM. The dissociation constant Kd with HBsAg AY serotype [5] turned out to be 0.6 nM; with HBsAg AD serotype [6], 1.1 nM. The concentration giving a half-maximal response (EC50 (read off the curve)) in assay [15] is approximately 0.02 nM; in [16], approximately 0.1 nM.

B4: NOV3357 (antibody, human IgG1, kappa, V domains shown)
VH: EVQLLESGGGLVQPGGSLRLSCAASGFTFSPHAMSWVRQAPGKGLEWVSAISDSGGSTHYADSVKGRFTISRDNSKNTLYLQMNSLRAEDTAVYYCARDDDGWSGYDYWFDYWGQGTLVTVSS
VL: DIQMTQSPSSLSASVGDRVTITCRASQSISPYLNWYQQKPGKAPKLLIYAADSLQSGVPSRFSGSGSGTDFTLTISSLQPEDFATYYCQQSYKIPLTFGQGTKVEIKR
notes: as for B2
On to B4, for which the “Virus neutralization EC50” value in assay [1] worked out at 0.056 nM. Further, the 50% inhibitory concentration (IC50) in assay [2] stood at 0.017 nM; in assay [3], 0.03 nM; in assay [4], 0.016 nM; in assay [9], 0.22 nM; in assay [10], 0.67 nM; in [11], 5.5 nM. Further, the IC50 in [12] is 2.1 nM. In addition, the figures for the Kd in the assay with HBsAg AY serotype [5] and in the assay with HBsAg AD serotype [6] were 0.11 nM and 0.18 nM, respectively. For the same molecule, the “EC50 (read off the curve)” value in [17] and in [18] was approximately 0.1 nM each time.

B5: NOV3540 (antibody, human IgG1, kappa, V domains shown)
VH: EVQLLESGGGLVQPGGSLRLSCAASGFTFSPHAMSWVRQAPGKGLEWVSAISDSGGSTHYADSVKGRFTISRDNSKNTLYLQMNSLRAEDTAVYYCARDDDAWSGYDYWFDYWGQGTLVTVSS
VL: DIQMTQSPSSLSASVGDRVTITCRASQSISPYLNWYQQKPGKAPKLLIYAADSLQSGVPSRFSGSGSGTDFTLTISSLQPEDFATYYCQQSYKIPLTFGQGTKVEIKR
notes: as for B2
Take B5: in assay [1], the “Virus neutralization EC50” value came out at 0.085 nM. Further, the half-maximal inhibitory concentration (IC50) turned out to be 0.059 nM in assay [2]; 0.1 nM in assay [3]; 0.1 nM in assay [4]; 0.063 nM in assay [9]; 0.091 nM in assay [10]; 0.25 nM in [11]. The midpoint of inhibition in [12], the IC50, lay at 0.16 nM. The Kd with HBsAg AY serotype [5] came to 0.25 nM; with HBsAg AD serotype [6] it was 0.39 nM. Also, the “binding of second antibody” value in the assay with HBsAg AY serotype [19] was 118 % of its binding as first antibody; in the assay with HBsAg AD serotype [20], 254 % of its binding as first antibody; with HBsAg AY serotype [25], 102 % of its binding as first antibody; with HBsAg AD serotype [26] it was 111 % of its binding as first antibody. In addition, the concentration for a half-maximal effect (EC50 (read off the curve)) in assay [21] was approximately 0.08 nM; in assay [22], approximately 0.08 nM; in assay [23] it was approximately 0.3 nM; in assay [24], approximately 0.2 nM.

B6: NOV3836 (antibody, human IgG1, kappa, V domains shown)
VH: QVQLVESGGGVVQPGRSLRLSCAASGFTFERYGMHWVRQAPGKGLEWVAGIWHEGSHKYYADSLRGRFTISRDNAKNTLDLQLNRLRAEDTSVYYCVRQTNRGRLDDAFDIWGQGTMVTVSS
VL: DIQMTQSPSSLSAAVGDRVTISCRASQTISSYLNWYQQKPGEAPKLLIYAASTLQSGVPSRFGGSGSGTDFTLTISSLQPEDSATYYCQQNYDTLWTFGQGTKVEIKR
As to B6, the “Virus neutralization EC50” value in assay [1] stood at 0.017 nM.

B7: NOV3834 (antibody, human IgG1, kappa, V domains shown)
VH: QVQLVESGGGVVQPGRSLRLSCAASGFTFNRYGMHWVRQAPGKGLEWVAGIWHDGSHKYYADSLRGRFTISRDNAKNTLDLQLNRLRAEDTSVYYCVRQTNRGRLDDAFDIWGQGTMVTVSS
VL: DIQMTQSPSSLSAAVGDRVTISCRASQTISSYLNWYQQKPGEAPKLLIYAASTLQSGVPSRFGGSGSGTDFTLTISSLQPEDSATYYCQQNYDTLWTFGQGTKVEIKR
notes: as for B2
As for B7, in assay [1], the “Virus neutralization EC50” value stood at 0.24 nM. In addition, the 50% inhibitory concentration (IC50) in assay [2] was determined as 1.2 nM; in [3], 2 nM; in assay [4], 16 nM; in [9], 7.4 nM; in [10] it was 9.2 nM. For the same molecule, the figures for the Kd in the assay with HBsAg AY serotype [5] and with HBsAg AD serotype [6] were 5.3 nM and 40 nM, respectively.

B8: NOV3835 (antibody, human IgG1, kappa, V domains shown)
VH: QVQLVESGGGVVQPGRSLRLSCAASGFTFDRYGMHWVRQAPGKGLEWVAGIWHEGSHKYYADSLRGRFTISRDNAKNTLDLQLNRLRAEDTSVYYCVRQTNRGRLDDAFDIWGQGTMVTVSS
VL: DIQMTQSPSSLSAAVGDRVTISCRASQTISSYLNWYQQKPGEAPKLLIYAASTLQSGVPSRFGGSGSGTDFTLTISSLQPEDSATYYCQQNYDTLWTFGQGTKVEIKR
In the case of B8, the “Virus neutralization EC50” value in [1] was 0.72 nM.
